Measurements taken from patent publication US20250332297A1, “DLL3-SPECIFIC BINDING CONSTRUCTS AND THEIR USE IN RADIOTHERAPY” (MOLECULAR PARTNERS AG, priority 2024, published 2025).

T1: Human DLL3-NTD (Homo sapiens, UniProt Q9NYJ7)
T1 construct: comprising only the N-Terminal Domain (NTD, residues 27-189); 6xHis (C); made in house; host or cells: Expi293F cells
T1 sequence (Q9NYJ7 27-189): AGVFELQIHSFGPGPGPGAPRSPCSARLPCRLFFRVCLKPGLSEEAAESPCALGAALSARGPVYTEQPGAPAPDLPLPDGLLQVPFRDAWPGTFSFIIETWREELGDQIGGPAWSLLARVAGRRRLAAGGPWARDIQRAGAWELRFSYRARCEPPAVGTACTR

B1: Rova: Rova antibody, DLL3-binding benchmark antibody used as positive control and comparison (antibody, chains of the INN, looked up, V domains shown)
VH: QVQLVQSGAEVKKPGASVKVSCKASGYTFTNYGMNWVRQAPGQGLEWMGWINTYTGEPTYADDFKGRVTMTTDTSTSTAYMELRSLRSDDTAVYYCARIGDSSPSDYWGQGTLVTVSS
VL: EIVMTQSPATLSVSPGERATLSCKASQSVSNDVVWYQQKPGQAPRLLIYYASNRYTGIPARFSGSGSGTEFTLTISSLQSEDFAVYYCQQDYTSPWTFGQGTKLEIK
B2: MAM279: Two domain (2D) ankyrin repeat protein: serum albumin-specific domain (SEQ ID NO: 7), PT linker, DLL3-specific domain of MAM093 (protein)
chain: DLGKKLLEAARAGQDDEVRELLKAGADVNAKDYFSHTPLHLAARNGHLKIVEVLLKAGADVNAKDFAGKTPLHLAADAGHLEIVEVLLKAGADVNAQDIFGKTPADIAADAGHEDIAEVLQKAAGSPTPTPTTPTPTPTTPTPTPTGSDLGKKLLAAAAQGQDDEVRELLKAGANVNAKDLFGYTPLHLAAWRGHLEIVEVLLKAGADVNAKDAAGETPLHLAAWFGHLEIVEVLLKAGADVNAQDLQGKTPADLAAKEGHEDIAEVLQKAA
modifications: Ankyrin repeat protein (MAM279)
B3: MAM279-DOTAM: GS-MAM279-tag (SEQ ID NO: 15) conjugated to the chelator DOTAM via C-terminal tag and maleimide connector, no radionuclide (conjugate)
chain: GSDLGKKLLEAARAGQDDEVRELLKAGADVNAKDYFSHTPLHLAARNGHLKIVEVLLKAGADVNAKDFAGKTPLHLAADAGHLEIVEVLLKAGADVNAQDIFGKTPADIAADAGHEDIAEVLQKAAGSPTPTPTTPTPTPTTPTPTPTGSDLGKKLLAAAAQGQDDEVRELLKAGANVNAKDLFGYTPLHLAAWRGHLEIVEVLLKAGADVNAKDAAGETPLHLAAWFGHLEIVEVLLKAGADVNAQDLQGKTPADLAAKEGHEDIAEVLQKAAGSGSC
modifications: DOTAM chelator via maleimide on C-terminal tag; Ankyrin repeat protein with tag (GS-MAM279-tag)

Tests used:
[1] = test system: SHP-77 lung carcinoma cells; assay: Internalization in SHP-77 cells; format: cell-based, human; conditions: AF488 label with anti-AF488 quencher, 37° C.
Description: (§1) Studies were performed to determine whether a half-life extended DLL3-specific ankyrin repeat protein, as described herein, is internalized upon binding to cells expressing DLL3 on their surface. The specific ankyrin repeat protein tested was MAM279 (SEQ ID NO: 11) (with a Glycine-Serine (GS) at its N-terminal end). […] As a comparison, internalization was also tested for Rova antibody. Internalization was investigated on different cell types expressing DLL3 on their surface, namely SHP-77 lung carcinoma cells, NCI-H82 lung carcinoma cells, and hDLL3-expressing MC38 (MC38-hDLL3) colon carcinoma cells. In brief, DARPin and antibody were pre-incubated and labelled with fluorescently labelled detection antibodies (Fab-AF488) and added to 5×10^4 cells/well in a 96-well plate (100 nM DARPin, 10 nM antibody control) and incubated for 1h on ice. Cells were washed once with PBS and then incubated for different timepoints (0 min, 15 min, 30 min, 1 h and/or 4 h) at 37° C. in PBS with 2% FCS. […] Raw fcs files were exported and analyzed using FlowJo software. MFI values of live AF488-positive cells were exported from FlowJo and plotted using GraphPad Prism software. % internalization was determined by normalizing to non-binding control DARPin (for MAM279) or non-binding isotype control IgG (for Rova). […]

[2] = test system: hDLL3-expressing MC38 (MC38-hDLL3) colon carcinoma cells; assay: Internalization in MC38-hDLL3 cells; format: cell-based; conditions: AF488 label with anti-AF488 quencher, 37° C.
Description: as §1

Cyno DLL3-ECD = assay: SPR binding to cyno DLL3-ECD (Example 11); parameters: species or system cynomolgus monkey
Source text: The DLL3 target protein from cynomolgus macaque (cyno) was produced similarly to the human target protein. It consisted of the extracellular domain of the cyno DLL3 protein (XP_005589253.1, Gene ID:102115332, residues 27 to 466, purchased from Evitria) linked via an Avi-tag (for site-directed biotinylation), followed by a 3C protease recognition site, to a Fc knob into hole. The target protein was expressed in CHO cells (Chinese hamster ovary cells) by Evitria and purified by a protein A derivative-based affinity chromatography followed by preparative size exclusion chromatography (SEC). The material was up-concentrated in PBS pH 7.4 to 0.53 mg/ml and in vitro biotinylated using recombinant BirA. The final material was monomeric on size exclusion and stored in PBS pH 7.4 at the final concentration of 0.26 mg/ml.
(§2) The binding of 2D ankyrin repeat protein MAM279 as well as of MAM279 conjugated to the chelator DOTAM (the conjugation was performed as described in Example 3) to different target proteins was analyzed by Surface Plasmon Resonance (SPR). Specifically, the proteins analyzed were (i) MAM279 (SEQ ID NO: 11), with a Glycine-Serine (GS) at its N-terminal end and an N-terminal His-tag (SEQ ID NO: 19); and (ii) MAM279 (SEQ ID NO: 11), with a Glycine-Serine (GS) at its N-terminal end and a tag (SEQ ID NO: 10) at its C-terminal end (resulting in GS-MAM279-tag (SEQ ID NO: 15)), conjugated to the chelator DOTAM as described in Example 3.
(§3) A surface plasmon resonance (SPR) assay was used to determine the binding kinetics of the two proteins (i.e. MAM279 with and without conjugation to chelator) to different targets: the Extra-Cellular Domain (ECD) of human DLL3, the ECD of cynomolgus monkey DLL3, the N-Terminal Domain (NTD) only of human DLL3, and the NTD dog DLL3. The data were generated using BioRad ProteOn instrument in SPR running buffer (PBS, pH 7.4 containing 0.005% Tween 20©). […] The chip was coated with biotinylated target to reach a signal intensity of 1516 RU (human ECD), 257 RU (human NTD), 1500 RU (cyno ECD) and 228 RU (dog NTD). All analytes (various concentrations in 3-fold dilutions ranging from 500-6.17 nM) were injected in succession for 240 s (100 μl/min) and dissociation was recorded for 10800 s (100 μl/min). Each injection was followed by a regeneration step with 16 mM H3PO4 for 18 s. […] The obtained SPR traces were used to determine on-rate and off-rate interaction parameters.

Dog DLL3-NTD = assay: SPR binding to dog DLL3-NTD (Example 11)
Description: The truncated dog DLL3 construct, comprising only the N-Terminal Domain (NTD, residues 27-189), was designed similarly to the human truncated target protein, with a C-terminal 6×His and Avi-tag. Co-expression was carried in Expi293F cells and purification was performed via Ni-NTA affinity chromatography followed by SEC. The final material was monomeric on size exclusion and stored in PBS pH 7.4 at the final concentration of ˜0.1-0.2 mg/ml.
as §2, §3

Human DLL3-NTD = target: T1, Human DLL3-NTD; assay: SPR binding to human DLL3-NTD (Example 11); conditions: immobilized biotinylated target, 1:1 Langmuir, Table 14
Description: The truncated human DLL3 construct, comprising only the N-Terminal Domain (NTD, residues 27-189), was designed with a C-terminal 6×His and Avi-tag. Co-expression was carried in Expi293F cells and purification was performed via Ni-NTA affinity chromatography followed by SEC. The final material was monomeric on size exclusion and stored in PBS pH 7.4 at the final concentration of 0.26 mg/ml.
as §2, §3

[3] = SPR, immobilized biotinylated target, 1:1 Langmuir, Table 15

| Molecule | internalization [1] | internalization [2] | fold lower affinity (higher KD) for cynomolgus monkey DLL3-ECD than for human DLL3-ECD (Cyno DLL3-ECD; SPR KD comparison) | Kd (Cyno DLL3-ECD; [3]) [nM] | Koff Cyno DLL3-ECD (Cyno DLL3-ECD; [3]) [s⁻¹] | Kon Cyno DLL3-ECD (Cyno DLL3-ECD; [3]) [M⁻¹ s⁻¹] | fold lower affinity for dog DLL3-NTD than for human DLL3-ECD (Dog DLL3-NTD; SPR KD comparison) | Kd (Dog DLL3-NTD; [3]) [nM] | Koff Dog DLL3-NTD (Dog DLL3-NTD; [3]) [s⁻¹] | Kon Dog DLL3-NTD (Dog DLL3-NTD; [3]) [M⁻¹ s⁻¹] | Kd (Human DLL3-NTD) [nM] | Koff Human DLL3-NTD (Human DLL3-NTD) [s⁻¹] | Kon Human DLL3-NTD (Human DLL3-NTD) [M⁻¹ s⁻¹] |
| --- | --- | --- | --- | --- | --- | --- | --- | --- | --- | --- | --- | --- | --- |
| B1 | internalization | internalization |  |  |  |  |  |  |  |  |  |  |  |
| B2 | similarly internalized | similarly internalized | about 100 fold | 22 | 0.000978 | 44500 | about 10 fold | 1.2 | 5.58e-05 | 46400 | 0.263 | 1.54e-05 | 58700 |
| B3 |  |  |  |  | 0.00125 | 36000 |  |  | 4.86e-05 | 33400 |  | 1.99e-05 | 50400 |
